Data as given in article PMC4335029.

Biological target: T1, VexR-MBP (Vibrio cholerae O1 El Tor N16961) (UniProt Q9KVI0)
T1 sequence: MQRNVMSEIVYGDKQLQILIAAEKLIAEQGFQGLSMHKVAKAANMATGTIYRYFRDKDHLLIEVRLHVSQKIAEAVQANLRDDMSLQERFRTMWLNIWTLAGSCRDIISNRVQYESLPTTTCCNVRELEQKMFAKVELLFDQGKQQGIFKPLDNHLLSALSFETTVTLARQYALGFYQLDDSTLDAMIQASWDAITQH
Assay: EMSA

Sequence | binding
GCGGGAGTCGGCAGCGGCCGTACACTATTTCAGACATCACATTTCTCTGCAAATGAACGGTTGTTCATTATAGCGGCTAATACCCCCTGTTTTGCACGCTGCCGACTCCCGC (double strand) [vexR2] | binds
GCGGGAGTCGGCAGCGATAATAATCCGCTCACCGAGGATTACCAACAAAGAAACTGCCTTTACAAAAATTTACTGCACAAGTGTATTGCAAAACAGGGGCGCTGCCGACTCCCGC (double strand) [vexR1] | no binding
